Assay results reported in PMC11381518, “Human cell surface-AAV interactomes identify LRP6 as blood-brain barrier transcytosis receptor and immune cytokine IL3 as AAV9 binder” (Nature Communications, 2024).

Experiments:
Experiment in all cases: pull-down; prey AAVs mixed with His-tagged bait protein and Ni-NTA resin in DPBS with 20 mM imidazole, 1 h at 4 °C; eluate analysed by Western blot with anti-VP1/VP2/VP3 and anti-6xHis
Details in all cases: both partners purified
AAV9-X1.1 capsid = biological target: T1, AAV9-X1.1 capsid (adeno-associated virus 9, UniProt Q6JC40 1-736, VR IV AA452-458 NGSGQNQ to DGAATKN | VR VIII AA587-590 AQ - - - - - - - AQ to …)
T1 construct: AAV9 capsid protein VP1 with changes in VR-IV and VR-VIII; numbers count on VP1; also called AAV-X1.1; source: HEK293 cells, triple transfected, purified (iodixanol gradient); copies: 60

AAV.CAP-Mac capsid = biological target: T2, AAV.CAP-Mac capsid (adeno-associated virus 9, UniProt Q6JC40 1-736, VR VIII AA587-590 AQ - - - - - - - AQ to AQLNTTKPIAQ)
T2 construct: AAV9 capsid protein VP1 with an insertion in VR-VIII; numbers count on VP1; source: HEK293 cells, triple transfected, purified (iodixanol gradient); copies: 60

AAV9 capsid = biological target: T3, AAV9 capsid (adeno-associated virus 9, UniProt Q6JC40 1-736)
T3 construct: AAV9 capsid protein VP1; numbers count on VP1; Assembled capsid with a packaged genome; also called AAV9 (parent of vectors below); source: HEK293 cells, triple transfected, purified (iodixanol gradient); copies: 60

Measured: binding result

B1: human Adeno-Associated Virus Receptor (AAVR) PKD2 domain (AA 401-498) tagged with 6xHis (domain or fragment)
chain: EPRKNRPPIAIVSPQFQEISLPTTSTVIDGSQSTDDDKIVQYHWEELKGPLREEKISEDTAILKLSKLVPGNYTFSLTVVDSDGATNSTTANLTVNKA
notes: human AAVR (KIAA0319L), PKD2 domain, AA 401-498; source: E. coli BL21(DE3)-RIPL, purified (Ni-NTA)
binds: all assays above
